Assay results published in PMC6386982, “A Thermostable Monoacylglycerol Lipase from Marine Geobacillus sp. 12AMOR1: Biochemical Characterization and Mutagenesis Study” (International Journal of Molecular Sciences, 2019).

Columns and labels:
Test in all cases: purified protein
Type in all cases: biochemical, Geobacillus sp. 12AMOR1
Details in all cases: 20 mM Tris-HCl pH 8.0, 30 °C
[1] = test system: T1, CCCC(=O)Oc1ccc([N+](=O)[O-])cc1
T1 construct: catalytic triad Ser97, Asp196, His226

[2] = test system: T2, CCCCCCCC(=O)Oc1ccc([N+](=O)[O-])cc1
T2 construct: catalytic triad Ser97, Asp196, His226

[3] = test system: T3, CCCCCC(=O)Oc1ccc([N+](=O)[O-])cc1
T3 construct: catalytic triad Ser97, Asp196, His226

Substance | Km [1] | kcat [1] | kcat/Km [1] | Km [2] | kcat [2] | kcat/Km [2] | Km [3] | kcat [3] | kcat/Km [3]
GMGL (Geobacillus sp. monoacylglycerol lipase) (Geobacillus sp. 12AMOR1) | 6.80 mM | 9.74 s⁻¹ | 1430 M⁻¹ s⁻¹ | 2.83 mM | 2.58 s⁻¹ | 910 M⁻¹ s⁻¹ | 4.06 mM | 4.31 s⁻¹ | 1060 M⁻¹ s⁻¹
GMGL (Geobacillus sp. monoacylglycerol lipase) (Geobacillus sp. 12AMOR1; I170F) | 2.37 mM | 3.31 s⁻¹ | 1210 M⁻¹ s⁻¹ | 4.63 mM | 2.08 s⁻¹ | 450 M⁻¹ s⁻¹ | 1.60 mM | 3.67 s⁻¹ | 2290 M⁻¹ s⁻¹
GMGL (Geobacillus sp. monoacylglycerol lipase) (Geobacillus sp. 12AMOR1; L142A) | 14.78 mM | 15.9 s⁻¹ | 1080 M⁻¹ s⁻¹ | 4.65 mM | 1.29 s⁻¹ | 280 M⁻¹ s⁻¹ | 1.66 mM | 4.08 s⁻¹ | 2460 M⁻¹ s⁻¹
GMGL (Geobacillus sp. monoacylglycerol lipase) (Geobacillus sp. 12AMOR1; I145A) | 9.56 mM | 3.25 s⁻¹ | 340 M⁻¹ s⁻¹ | 8.32 mM | 0.95 s⁻¹ | 110 M⁻¹ s⁻¹ | 1.34 mM | 2.02 s⁻¹ | 1510 M⁻¹ s⁻¹
